This is an account of results in the Human Domainome abundance scans (Beltran et al. 2025).

± gives the uncertainty stated by the source.

B1: Transcription factor SOX-4, residues 60 to 127; numbered along this chain, Q06945 (parent)
chain: KRPMNAFMVWSQIERRKIMEQSPDMHNAEISKRLGKRWKLLKDSDKIPFIREAERLRLKHMADYPDYK

This data set covers variants of B1. Nature of the data set: abundance fitness (aPCA) (normalised: wild type 0, dead -1); higher = more abundant; growth selection in yeast, the domain comes from the species named. Conditions: Homo sapiens.
Consider K42S, for which the abundance fitness was 0.13 ± 0.053.
Take A6V: the abundance fitness was -0.507 ± 0.054.
On to A6Q, for which the abundance fitness is -0.617 ± 0.094.
Regarding A6K, the abundance fitness was -0.791 ± 0.092.
The figure for A6L is -0.843 ± 0.078; for A6S it is -0.495 ± 0.05.
With D66L, the abundance fitness is -0.152 ± 0.06.
Take D66K: the abundance fitness is -0.11 ± 0.082.
For D66P the value was -0.067 ± 0.079; for I18W, -0.787 ± 0.082; for I18H, -0.627 ± 0.2.
The figure for I18V is -0.482 ± 0.086; for I30T it is -0.661 ± 0.12; for R55F it is -0.38 ± 0.059.
In the case of R55P, the abundance fitness was -0.5 ± 0.09.
For K68L the value was -0.297 ± 0.42.
The figure for D24N is -0.123 ± 0.063; for I47S it is -0.319 ± 0.041.
Turning to K17I, the abundance fitness was -0.178 ± 0.14.
With K17N, the abundance fitness is -0.262 ± 0.17.
For the variant K17S, the abundance fitness was -0.439 ± 0.075.
For K17E the value was -1.1 ± 0.42; for K17A, -0.765 ± 0.21.
The figure for K17W is -0.87 ± 0.13.
For D63I the value was -0.181 ± 0.045.
As for D63T, the abundance fitness was -0.104 ± 0.041.
For D63E the value was 0.044 ± 0.042; for D63W, -0.179 ± 0.061.
Turning to K36H, the abundance fitness is -0.141 ± 0.15.
In the case of K36N, the abundance fitness came out at 0.04 ± 0.24.
The figure for K36D is -0.362 ± 0.25; for K36G it is -0.416 ± 0.08; for S22T it is -0.326 ± 0.094.
For S22D the value was -0.034 ± 0.05; for R33P, -0.922 ± 0.14; for R33L, 0.192 ± 0.059.
In the case of R33D, the abundance fitness stood at 0.483 ± 0.36.
Regarding R33A, the abundance fitness was 0.121 ± 0.078.
For P48C the value was -0.504 ± 0.084; for P48R, -0.4 ± 0.055.
Regarding A53G, the abundance fitness was -0.684 ± 0.08.
The figure for A53N is -0.275 ± 0.24.
Turning to K39H, the abundance fitness was -0.506 ± 0.11.
For the variant K39P, the abundance fitness is -0.783 ± 0.2.
As to K39N, the abundance fitness is -0.19 ± 0.045.
With S31N, the abundance fitness was 0.05 ± 0.044.
The figure for S31H is -0.19 ± 0.07; for E52L it is -0.3 ± 0.062.
E52Y: the abundance fitness is -0.634 ± 0.23.
As for E52T, the abundance fitness is -0.477 ± 0.11.
For the variant E52Q, the abundance fitness was -0.291 ± 0.088.
For M4G the value was -0.311 ± 0.063; for N5H, -0.632 ± 0.18.
The figure for P23A is -0.619 ± 0.074; for P23F it is -0.97 ± 0.12.
In the case of E54H, the abundance fitness is -0.435 ± 0.045.
As to E54N, the abundance fitness was -0.158 ± 0.041.
The figure for E54W is -0.643 ± 0.09; for E54D it is -0.264 ± 0.046; for E54A it is -0.29 ± 0.062.
For E54G the value was -0.514 ± 0.044.
As for M25R, the abundance fitness is -0.591 ± 0.068.
As for M25S, the abundance fitness is -0.416 ± 0.086.
The figure for M25G is -0.713 ± 0.092; for M61C it is -0.071 ± 0.083.
Consider M61H, for which the abundance fitness worked out at 0.098 ± 0.061.
Regarding M61P, the abundance fitness was -0.202 ± 0.087.
With L41K, the abundance fitness is -0.653 ± 0.11.
The figure for L41M is 0.071 ± 0.065; for L41Q it is -0.889 ± 0.19.
For L41V the value was -0.529 ± 0.067; for P65K, 0.018 ± 0.07; for P65D, 0.103 ± 0.18.
For the variant P65W, the abundance fitness was -0.466 ± 0.11.
In the case of P65H, the abundance fitness was -0.09 ± 0.11.
The figure for P65Q is 0.042 ± 0.063; for K59A it is -0.04 ± 0.064.
F49Y: the abundance fitness is -0.044 ± 0.11.
For P3S the value was -0.122 ± 0.041.
The figure for P3M is -0.163 ± 0.063; for H26K it is 0.138 ± 0.15.
For H26P the value was 0.134 ± 0.092; for H26E, 0.024 ± 0.095.
In the case of H26W, the abundance fitness is -0.281 ± 0.079.
On to R37C, for which the abundance fitness was -0.366 ± 0.2.
For R37H the value was -0.313 ± 0.25.
Regarding R37D, the abundance fitness was -0.035 ± 0.091.
Consider E29W, for which the abundance fitness was -0.84 ± 0.18.
With E29S, the abundance fitness was -0.539 ± 0.094.
For M8W the value was -0.204 ± 0.055; for R15D, -0.752 ± 0.092.
The figure for H60A is -0.055 ± 0.045; for H60M it is -0.092 ± 0.073; for L34R it is -0.981 ± 0.14.
For L34V the value was -0.83 ± 0.18; for L34G, -0.973 ± 0.14; for L34W, -0.713 ± 0.11.
As to Q12N, the abundance fitness is -0.015 ± 0.099.
For Q12A the value was -0.138 ± 0.1; for Q12F, -0.494 ± 0.1; for R2W, -0.164 ± 0.095.
R2M: the abundance fitness is -0.088 ± 0.062.
Regarding R57W, the abundance fitness was -0.32 ± 0.11.
Consider R57T, for which the abundance fitness is -0.19 ± 0.17.
The figure for R57K is -0.375 ± 0.16; for R57L it is -0.328 ± 0.063.
The figure for K32Y is -0.062 ± 0.053; for K32S it is -0.067 ± 0.04; for K32I it is -0.225 ± 0.063.
The figure for G35V is 0.134 ± 0.037.
Consider G35L, for which the abundance fitness amounted to 0.168 ± 0.041.
On to L56T, for which the abundance fitness was -0.272 ± 0.09.
The figure for L56Y is -0.349 ± 0.22; for L56K it is -0.174 ± 0.15; for L56W it is -0.542 ± 0.088.
The figure for E20I is -0.227 ± 0.14; for E20F it is -0.601 ± 0.19; for R16Q it is -0.023 ± 0.067.
For R16D the value was -0.223 ± 0.054; for K1T, -0.379 ± 0.082.
Consider K1A, for which the abundance fitness is -0.193 ± 0.098.
For K1W, the abundance fitness is -0.336 ± 0.13.
Regarding K1G, the abundance fitness was -0.054 ± 0.068.
The figure for M19P is -0.785 ± 0.26; for M19Q it is -0.112 ± 0.11.
As to M19R, the abundance fitness is -0.236 ± 0.05.
With Y67S, the abundance fitness was determined as 0.088 ± 0.078.
For the variant Y67A, the abundance fitness was found to be 0.028 ± 0.093.
The figure for N27R is -0.112 ± 0.044.
N27C: the abundance fitness was -0.164 ± 0.055.
For Q21Y the value was -0.63 ± 0.26; for Q21C, -0.581 ± 0.17.
Consider Q21T, for which the abundance fitness was -0.085 ± 0.075.
Consider Q21S, for which the abundance fitness was -0.163 ± 0.064.
The figure for Q21R is -0.267 ± 0.066; for L58Q it is 0.046 ± 0.12; for L58V it is -0.046 ± 0.039.
The figure for A62Y is -0.104 ± 0.052.
For A62W the value was -0.249 ± 0.054; for W38M, -0.985 ± 0.11; for W38R, -1.16 ± 0.12.
With W38T, the abundance fitness is -0.632 ± 0.11.
The figure for W38D is -0.67 ± 0.091.
As to I50R, the abundance fitness is -0.2 ± 0.1.
The figure for I50F is 0.003 ± 0.12; for D45W it is -0.344 ± 0.12.
For the variant L40G, the abundance fitness is -0.08 ± 0.041.
The figure for I13M is -0.228 ± 0.069; for I13H it is 0.027 ± 0.23; for I13V it is -0.186 ± 0.049.
Regarding I13G, the abundance fitness is -0.222 ± 0.053.
The figure for I13Y is -0.456 ± 0.14.
Turning to S11N, the abundance fitness is -0.762 ± 0.099.
The figure for S11Q is -0.323 ± 0.092.
Regarding S11E, the abundance fitness was -0.031 ± 0.11.
The figure for Y64I is -0.109 ± 0.18; for S44R it is -0.264 ± 0.066.
S44H: the abundance fitness is -0.205 ± 0.1.
For S44Y the value was -0.687 ± 0.19; for S44W, -0.41 ± 0.099.
Consider A28T, for which the abundance fitness is -0.234 ± 0.066.
For A28K the value was -0.099 ± 0.086.
Consider V9W, for which the abundance fitness is -0.694 ± 0.13.
For W10G the value was -0.954 ± 0.2; for W10V, -0.621 ± 0.1; for W10M, -1.08 ± 0.34.
For W10Y the value was -0.554 ± 0.2.
